Test results taken from US20170305981.

Key:
AV199-232 = test system: T1, AV199-232
T1 sequence: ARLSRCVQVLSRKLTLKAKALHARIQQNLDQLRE

AV199-237 = test system: T2, AV199-237
T2 sequence: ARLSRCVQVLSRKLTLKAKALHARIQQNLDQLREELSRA

lipoprotein lipase (LpL), SIGMA was tested, and the “affinity of LpL for substrate on addition of VLDL (10 µg/ml)” value (apoC-III content of VLDL) was “The addition of VLDL reduced the enzymes affinity for substrate by 5.3-fold”, the “Km of LpL for substrate, with VLDL, 2.5 µM peptide” value (AV199-232) was “substantially improved the Km by almost 8-fold” and the “apparent affinity of LpL for substrate (Michaelis-Menten fit), AV199-232 (2.5 µM) + VLDL (10 µg/ml)” value (AV199-232) was “AV199-232+VLDL increases LpL's apparent affinity for substrate by 7.8-fold”. The “LpL hydrolytic activity (EnzChek fluorogenic TG substrate), peptide pre-incubated with VLDL” value (AV199-237) was “hydrolytic activity was increased ˜4-fold”.
